Laboratory results as given in publication PMC5446187, “USP9X counteracts differential ubiquitination of NPHP5 by MARCH7 and BBS11 to regulate ciliogenesis” (PLoS Genetics, 2017).

Columns and labels:
[1] = target: T1, GFP-USP9X catalytically inactive mutant (C1566S) (mouse) (mouse, UniProt P70398 1-2559, C1566S); test: co-IP; anti-Flag immunoprecipitation from lysates of HEK293 cells expressing Flag-NPHP5 or its fragments (alone or with GFP-tagged partner), Western blot; conditions: partners not purified
T1 construct: mouse USP9X C1566S cDNA (from S. Wood) sub-cloned into pEGFP-C1; pEGFP-C1 is expected to place EGFP at the N-terminus (surmise); also called GFP-USP9X mutant (C1566S); pEGFP-C1-USP9X(C1566S); source: HEK293, transfected, in lysate; also purified from HEK293 (anti-GFP immunoprecipitation, 500 mM NaCl washes, kept on beads)

[2] = target: T2, GFP-USP9X wild type (mouse) (mouse, UniProt P70398 1-2559); test: as above; conditions: partners not purified
T2 construct: mouse USP9X cDNA (from S. Wood) sub-cloned into pEGFP-C1; pEGFP-C1 is expected to place EGFP at the N-terminus (surmise); also called pEGFP-C1-USP9X; purified USP9X; source: HEK293, transfected, in lysate; also purified from HEK293 (anti-GFP immunoprecipitation, 500 mM NaCl washes, kept on beads)

[3] = target: T3, BBS11/TRIM32, endogenous (human (endogenous in HEK293), UniProt Q13049 1-653); test: pull-down; 1 μg purified Flag-NPHP5 mixed with 1 μg purified USP9X, BBS11 or MARCH7 bound to beads, 4°C, 2 h, extensive washing, Western blot; conditions: both partners purified
T3 construct: E3 ubiquitin ligase BBS11/TRIM32, endogenous in HEK293; also called endogenous BBS11; source: endogenous, HEK293 lysate; also immunoprecipitated from HEK293 with anti-BBS11 antibody, 500 mM NaCl washes, kept on beads
T3 sequence (looked up): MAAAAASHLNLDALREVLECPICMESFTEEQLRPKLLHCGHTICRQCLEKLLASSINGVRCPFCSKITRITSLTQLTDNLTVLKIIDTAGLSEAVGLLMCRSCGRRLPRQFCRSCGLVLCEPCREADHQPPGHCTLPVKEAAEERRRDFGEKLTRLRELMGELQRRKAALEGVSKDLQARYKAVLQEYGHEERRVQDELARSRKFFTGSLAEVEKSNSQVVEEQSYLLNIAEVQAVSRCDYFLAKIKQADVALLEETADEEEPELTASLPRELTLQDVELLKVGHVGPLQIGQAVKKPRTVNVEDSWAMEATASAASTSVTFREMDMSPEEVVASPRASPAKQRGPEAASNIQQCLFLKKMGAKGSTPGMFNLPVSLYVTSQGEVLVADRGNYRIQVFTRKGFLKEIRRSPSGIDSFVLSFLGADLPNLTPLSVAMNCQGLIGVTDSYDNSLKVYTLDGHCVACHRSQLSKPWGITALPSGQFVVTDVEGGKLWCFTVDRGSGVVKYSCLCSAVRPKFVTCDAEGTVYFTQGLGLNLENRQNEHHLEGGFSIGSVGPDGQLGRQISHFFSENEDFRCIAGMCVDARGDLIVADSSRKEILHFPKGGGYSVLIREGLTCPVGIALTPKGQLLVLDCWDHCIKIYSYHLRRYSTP

[4] = target: T4, MARCH7/axotrophin, endogenous (human (endogenous in HEK293), UniProt Q9H992 1-704); test: as above; conditions: both partners purified
T4 construct: E3 ubiquitin ligase MARCH7/axotrophin, endogenous in HEK293; also called endogenous MARCH7; source: endogenous, HEK293 lysate; also immunoprecipitated from HEK293 with anti-MARCH7 antibody, 500 mM NaCl washes, kept on beads
T4 sequence (looked up): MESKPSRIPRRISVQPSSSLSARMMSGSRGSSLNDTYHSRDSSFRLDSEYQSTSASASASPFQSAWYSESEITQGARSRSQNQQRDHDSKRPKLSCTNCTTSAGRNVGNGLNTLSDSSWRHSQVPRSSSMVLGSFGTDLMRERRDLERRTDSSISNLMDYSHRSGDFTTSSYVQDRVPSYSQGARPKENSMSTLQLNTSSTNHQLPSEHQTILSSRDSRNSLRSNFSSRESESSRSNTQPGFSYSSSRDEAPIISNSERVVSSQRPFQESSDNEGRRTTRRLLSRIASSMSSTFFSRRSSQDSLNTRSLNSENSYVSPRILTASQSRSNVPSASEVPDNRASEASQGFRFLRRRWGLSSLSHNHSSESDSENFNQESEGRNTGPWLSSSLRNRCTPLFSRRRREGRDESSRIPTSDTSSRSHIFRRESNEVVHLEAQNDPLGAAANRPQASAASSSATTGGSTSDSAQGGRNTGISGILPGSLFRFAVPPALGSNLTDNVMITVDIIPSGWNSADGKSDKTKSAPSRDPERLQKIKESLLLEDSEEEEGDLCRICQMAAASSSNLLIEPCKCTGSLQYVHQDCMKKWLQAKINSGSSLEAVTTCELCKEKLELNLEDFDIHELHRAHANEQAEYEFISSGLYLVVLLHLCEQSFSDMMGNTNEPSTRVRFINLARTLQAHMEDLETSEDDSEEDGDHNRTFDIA

Measured: binding result

T1 sequence (P70398 whole entry C1566S, the tested form may be a part): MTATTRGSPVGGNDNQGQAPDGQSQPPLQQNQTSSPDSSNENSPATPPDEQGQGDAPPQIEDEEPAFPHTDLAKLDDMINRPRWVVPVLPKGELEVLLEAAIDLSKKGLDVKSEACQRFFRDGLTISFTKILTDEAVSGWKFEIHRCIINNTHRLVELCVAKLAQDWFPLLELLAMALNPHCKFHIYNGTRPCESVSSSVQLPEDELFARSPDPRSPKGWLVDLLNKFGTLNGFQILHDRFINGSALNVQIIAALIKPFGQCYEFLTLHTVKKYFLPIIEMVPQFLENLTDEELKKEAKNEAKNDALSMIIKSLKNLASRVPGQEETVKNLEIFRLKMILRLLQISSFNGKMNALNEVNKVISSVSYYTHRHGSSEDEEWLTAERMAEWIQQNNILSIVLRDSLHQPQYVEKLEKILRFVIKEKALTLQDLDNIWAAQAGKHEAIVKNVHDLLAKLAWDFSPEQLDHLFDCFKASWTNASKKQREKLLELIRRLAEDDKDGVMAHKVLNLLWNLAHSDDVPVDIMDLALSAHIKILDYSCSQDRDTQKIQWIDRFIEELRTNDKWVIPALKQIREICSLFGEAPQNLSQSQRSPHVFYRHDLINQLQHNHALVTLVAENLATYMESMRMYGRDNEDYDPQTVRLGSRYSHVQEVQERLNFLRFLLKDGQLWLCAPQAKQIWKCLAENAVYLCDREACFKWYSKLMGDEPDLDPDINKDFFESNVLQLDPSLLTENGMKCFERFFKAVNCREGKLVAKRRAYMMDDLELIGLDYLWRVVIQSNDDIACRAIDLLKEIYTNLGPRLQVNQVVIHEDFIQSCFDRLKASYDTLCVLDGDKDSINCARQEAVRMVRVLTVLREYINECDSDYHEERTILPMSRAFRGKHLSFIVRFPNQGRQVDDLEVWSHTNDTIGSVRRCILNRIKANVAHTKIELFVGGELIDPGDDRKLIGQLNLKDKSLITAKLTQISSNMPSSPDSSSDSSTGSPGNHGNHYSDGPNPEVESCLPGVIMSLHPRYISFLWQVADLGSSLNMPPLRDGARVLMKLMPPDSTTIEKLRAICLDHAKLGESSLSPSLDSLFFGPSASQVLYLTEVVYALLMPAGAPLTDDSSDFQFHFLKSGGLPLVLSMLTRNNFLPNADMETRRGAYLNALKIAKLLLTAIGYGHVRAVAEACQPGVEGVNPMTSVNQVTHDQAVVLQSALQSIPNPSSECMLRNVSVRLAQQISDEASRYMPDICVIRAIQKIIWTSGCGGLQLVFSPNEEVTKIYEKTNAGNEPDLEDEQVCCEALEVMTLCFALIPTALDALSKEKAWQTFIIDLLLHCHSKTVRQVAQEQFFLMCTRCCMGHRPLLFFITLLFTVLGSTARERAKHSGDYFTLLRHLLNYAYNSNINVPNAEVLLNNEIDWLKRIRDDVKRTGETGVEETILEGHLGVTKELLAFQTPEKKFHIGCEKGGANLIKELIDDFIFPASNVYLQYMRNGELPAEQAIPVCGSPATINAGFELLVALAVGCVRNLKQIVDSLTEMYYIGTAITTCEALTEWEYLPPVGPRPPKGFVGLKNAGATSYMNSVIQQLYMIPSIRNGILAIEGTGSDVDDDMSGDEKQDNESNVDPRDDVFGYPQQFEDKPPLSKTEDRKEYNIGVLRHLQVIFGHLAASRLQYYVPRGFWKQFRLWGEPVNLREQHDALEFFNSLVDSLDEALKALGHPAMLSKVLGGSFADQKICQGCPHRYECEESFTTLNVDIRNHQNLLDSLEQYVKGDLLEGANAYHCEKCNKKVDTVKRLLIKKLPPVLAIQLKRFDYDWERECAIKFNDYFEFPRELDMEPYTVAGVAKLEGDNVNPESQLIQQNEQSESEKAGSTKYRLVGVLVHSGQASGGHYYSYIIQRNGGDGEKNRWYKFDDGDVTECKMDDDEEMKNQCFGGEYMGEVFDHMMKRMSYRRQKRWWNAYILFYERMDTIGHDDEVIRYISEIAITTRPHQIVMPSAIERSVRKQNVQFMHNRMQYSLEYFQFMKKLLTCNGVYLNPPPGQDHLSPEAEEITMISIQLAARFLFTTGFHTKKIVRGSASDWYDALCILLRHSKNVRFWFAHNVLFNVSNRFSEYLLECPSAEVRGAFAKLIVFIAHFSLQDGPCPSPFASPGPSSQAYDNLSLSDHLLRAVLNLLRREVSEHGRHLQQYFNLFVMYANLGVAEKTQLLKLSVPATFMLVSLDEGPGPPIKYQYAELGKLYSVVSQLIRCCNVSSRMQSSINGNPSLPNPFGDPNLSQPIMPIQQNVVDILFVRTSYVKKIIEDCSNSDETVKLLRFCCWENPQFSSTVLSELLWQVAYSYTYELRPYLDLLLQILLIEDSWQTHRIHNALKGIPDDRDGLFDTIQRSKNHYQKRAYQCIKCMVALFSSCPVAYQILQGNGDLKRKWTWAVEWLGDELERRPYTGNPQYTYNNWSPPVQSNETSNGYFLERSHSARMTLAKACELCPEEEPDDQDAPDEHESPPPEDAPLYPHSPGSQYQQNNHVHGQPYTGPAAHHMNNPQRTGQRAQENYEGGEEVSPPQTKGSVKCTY
T2 sequence (P70398 whole entry): as the sequence (P70398 whole entry C1566S, the tested form may be a part) above, with S1566C counted along it

B1: Flag-NPHP5 (nephrocystin-5), full length 1-598 (natural protein, UniProt Q15051 1-598, looked up)
chain: MKPTGTDPRILSIAAEVAKSPEQNVPVILLKLKEIINITPLGSSELKKIKQDIYCYDLIQYCLLVLSQDYSRIQGGWTTISQLTQILSHCCVGLEPGEDAEEFYNELLPSAAENFLVLGRQLQTCFINAAKAEEKDELLHFFQIVTDSLFWLLGGHVELIQNVLQSDHFLHLLQADNVQIGSAVMMMLQNILQINSGDLLRIGRKALYSILDEVIFKLFSTPSPVIRSTATKLLLLMAESHQEILILLRQSTCYKGLRRLLSKQETGTEFSQELRQLVGLLSPMVYQEVEEQKLHQAACLIQAYWKGFQTRKRLKKLPSAVIALQRSFRSKRSKMLLEINRQKEEEDLKLQLQLQRQRAMRLSRELQLSMLEIVHPGQVEKHYREMEEKSALIIQKHWRGYRERKNFHQQRQSLIEYKAAVTLQRAALKFLAKCRKKKKLFAPWRGLQELTDARRVELKKRVDDYVRRHLGSPMSDVVSRELHAQAQERLQHYFMGRALEERAQQHREALIAQISTNVEQLMKAPSLKEAEGKEPELFLSRSRPVAAKAKQAHLTTLKHIQAPWWKKLGEESGDEIDVPKDELSIELENLFIGGTKPP
notes: also called IQCB1; source: HEK293, transfected, in lysate; also purified from HEK293 (anti-Flag immunoprecipitation, 500 mM NaCl washes, eluted with Flag peptide)
binds: all assays above
